These results are taken from patent publication US9707281B2, “Pharmaceutical compositions and methods for digesting atherosclerotic plaques” (Northwestern University, priority 2010, dated 2017).

The test system of the experiment is Human arterial plaque samples. Description: in vitro dissolution and digestion of atherosclerotic plaque specimens (percent reduction of plaque weight). The note with it: EDTA 0.5-2 mg/ml, β-cyclodextrin 1-100 mMol, tPA 0.5-2 mg/ml, p<0.05. On the procedure:
Atherosclerotic plaques from surgical endarterectomies were obtained from various anatomic sites. All experiments were performed by cutting a given plaque into equal parts by weight then exposing them to various agents alone and in combination to determine the most optimal digestion solution. The optimal concentration and conditions for plaque dissolution and digestion were determined for ethylenediaminetetraacetic acid (EDTA), β-cyclodextrin, tPA, collagenase type I, III, IV, and V. Weights of each specimen were obtained prior to exposure of each solution and at different time points to determine percent of digested versus undigested plaque. Additional variables that were assessed and optimized include: 1) different combinations of EDTA, β-cyclodextrin, and the collagenases, 2) temperature, 3) pH, and 4) agitation.
Atherosclerotic plaques were obtained from patients undergoing endarterectomies. The optimal concentration and conditions for plaque dissolution and digestion were determined for ethylenediaminetetraacetic acid (EDTA), β-cyclodextrin, and collagenase type I, III, IV, and V. Variables that were assessed included: 1) combination of different agents, 2) time, 3) temperature, 4) pH, and 5) agitation. Weight of each specimen was measured at different time points to determine percent of undigested plaque. […]

B1: tPA: tissue plasminogen activator (protein, UniProt P00750 36-562, looked up)
Tissue-type plasminogen …: SYQVICRDEKTQMIYQQHQSWLRPVLRSNRVEYCWCNSGRAQCHSVPVKSCSEPRCFNGGTCQQALYFSDFVCQCPEGFAGKCCEIDTRATCYEDQGISYRGTWSTAESGAECTNWNSSALAQKPYSGRRPDAIRLGLGNHNYCRNPDRDSKPWCYVFKAGKYSSEFCSTPACSEGNSDCYFGNGSAYRGTHSLTESGASCLPWNSMILIGKVYTAQNPSAQALGLGKHNYCRNPDGDAKPWCHVLKNRRLTWEYCDVPSCSTCGLRQYSQPQFRIKGGLFADIASHPWQAAIFAKHRRSPGERFLCGGILISSCWILSAAHCFQERFPPHHLTVILGRTYRVVPGEEEQKFEVEKYIVHKEFDDDTYDNDIALLQLKSDSSRCAQESSVVRTVCLPPADLQLPDWTECELSGYGKHEALSPFYSERLKEAHVRLYPSSRCTSQHLLNRTVTDNMLCAGDTRSGGPQANLHDACQGDSGGPLVCLNDGRMTLVGIISWGLGCGQKDVPGVYTKVTNYLDWIRDNMRP
For the molecule B1, the “reduction in plaque weight, agent alone” value worked out at 20%.
